According to publication PMC6726835 (Cancer Science, 2019):

What follows are binders tested against Recombinant soluble form (amino acids 297-580) of human mesothelin (r-MSLN) (Homo sapiens, UniProt Q13421) (assay: BLI).

| Kd [nM] | Binder |
| --- | --- |
| 78.2 | 89Zr-DFO-scFv H2a064 (scFv, V domains shown) VH: QVQLVQSGGGLVQPGRSLRLSCAASGFTFDDYAMHWVRQAPGKGLEWVSGISWNSGSIGYADSVKGRFTISRDNAKNSLYLQMNSLRAEDTALYYCAKDIGSSGWYGAFDIWGQGTTVTVSS VL: SYELTQPPSVSVSPGQTARITCSGDALPKHYASWYQQKPGQAPVLLIYKDTERPSGIPERFSGSSSGTTVTLTISGVQAEDEADYYCQSADSSVTVVFGGGTKLTVL |
| 59.6 | Antihuman MSLN His-Tag scFv clone H2a064 (scFv, V domains shown) VH: QVQLVQSGGGLVQPGRSLRLSCAASGFTFDDYAMHWVRQAPGKGLEWVSGISWNSGSIGYADSVKGRFTISRDNAKNSLYLQMNSLRAEDTALYYCAKDIGSSGWYGAFDIWGQGTTVTVSS VL: SYELTQPPSVSVSPGQTARITCSGDALPKHYASWYQQKPGQAPVLLIYKDTERPSGIPERFSGSSSGTTVTLTISGVQAEDEADYYCQSADSSVTVVFGGGTKLTVL |
| 114 | DFO-conjugated His-Tag scFv clone H2a064 (scFv, V domains shown) VH: QVQLVQSGGGLVQPGRSLRLSCAASGFTFDDYAMHWVRQAPGKGLEWVSGISWNSGSIGYADSVKGRFTISRDNAKNSLYLQMNSLRAEDTALYYCAKDIGSSGWYGAFDIWGQGTTVTVSS VL: SYELTQPPSVSVSPGQTARITCSGDALPKHYASWYQQKPGQAPVLLIYKDTERPSGIPERFSGSSSGTTVTLTISGVQAEDEADYYCQSADSSVTVVFGGGTKLTVL |
| 4.68 | Antihuman MSLN His-Tag scFv clone H1a050 (scFv, V domains shown) VH: EVQLVQSGGGLVQPDRSLRLSCAASGFTFDDYAMHWVRQAPGKGLEWVSGISWNSGSIGYADSVKGRFTISRDNAKNSLYLQMNSLRAEDTALYYCAKDLGSYYGSGSGMDVWGQGTTVTVSS VL: SYELTQPPSVSVSPGQTARITCSGNALPKQYAYWYQQKPGQAPVLMIYKDSERPSGIPERFSGSSSGTTVTLTISGVQAEDEADYYCQSADSSHTYKVFGGGTKLTVL |
| 3.38 | DFO-conjugated His-Tag scFv clone H1a050 (scFv, V domains shown) VH: EVQLVQSGGGLVQPDRSLRLSCAASGFTFDDYAMHWVRQAPGKGLEWVSGISWNSGSIGYADSVKGRFTISRDNAKNSLYLQMNSLRAEDTALYYCAKDLGSYYGSGSGMDVWGQGTTVTVSS VL: SYELTQPPSVSVSPGQTARITCSGNALPKQYAYWYQQKPGQAPVLMIYKDSERPSGIPERFSGSSSGTTVTLTISGVQAEDEADYYCQSADSSHTYKVFGGGTKLTVL |
| 46.2 | 89Zr-DFO-scFv H1a050 (scFv, V domains shown) VH: EVQLVQSGGGLVQPDRSLRLSCAASGFTFDDYAMHWVRQAPGKGLEWVSGISWNSGSIGYADSVKGRFTISRDNAKNSLYLQMNSLRAEDTALYYCAKDLGSYYGSGSGMDVWGQGTTVTVSS VL: SYELTQPPSVSVSPGQTARITCSGNALPKQYAYWYQQKPGQAPVLMIYKDSERPSGIPERFSGSSSGTTVTLTISGVQAEDEADYYCQSADSSHTYKVFGGGTKLTVL |
